For this experiment, the target named is T1, His-tagged BRD4 (1-470, BDs domain) (UniProt O60885 1-470).
T1 construct: BRD4, BDs domain (BD1 + BD2), aa 1-470; also called His-BRD4 (BD1 + BD2); pET-28a-His-BRD4 (1-470)
The experiment is described as follows: pull-down; GST pull-down; purified GST-GLTSCR1 (1161-1361) incubated with purified His-tagged BRD4 fragment at 4 °C overnight; beads washed three times in lysis buffer (0.5% Triton-X100, 50 mM NaH2PO4, 300 mM NaCl); immunoblot. The following applies: both partners purified. For orientation: Immunoblotting shows a protein as a band on a membrane.

B1: GST-GLTSCR1 (aa 1161-1361), BRD4 binding domain (BB domain) (domain or fragment, human, UniProt Q9NZM4 1161-1361, looked up)
chain: EESRRVSPSAEMVMIDRMFIQEEKTTLALDKQLAKEKPDEYVSSSRSLGLPIAASSEGHRLPGHGPLSSSAPGASTQPPPHLPTKLVIRHGGAGGSPSVTWARASSSLSSSSSSSSAASSLDADEDGPMPSRNRPPIKTYEARSRIGLKLKIKQEAGLSKVVHNTALDPVHQPPPPPATLKVAEPPPRPPPPPPPTGQMNG
notes: also called GST-tagged GLTSCR1 BB domain; source: E. coli BL21, purified (glutathione agarose beads)
Consider B1, for which the binding result is recorded as “binds”.

Values taken from article PMC6891902, “GLTSCR1 Negatively Regulates BRD4‐Dependent Transcription Elongation and Inhibits CRC Metastasis” (Advanced Science, 2019).
